From PMC5039489

Experiments:
[1] = molecular target: CK2α-DBCO545 (human protein kinase CK2α subunit with pAzF at position 239, coupled to DBCO545) (human) (UniProt P68400)
[2] = molecular target: CK2β autotransporter fusion protein (CK2β-AT), displayed on the surface of E. coli by Autodisplay (human); experiment: flow cytometry on cells; E. coli BL21(DE3) cells displaying the protein by Autodisplay (OD578 = 1, 20 µL) incubated with 10 µL purified CK2α-DBCO545 for 60 min at 37 °C, washed three times with PBS; 561 nm laser; 50,000 cells
[3] = molecular target: CK2α-DBCO-Sulfo-Cy5 (human protein kinase CK2α subunit with pAzF at position 239, coupled to DBCO-Sulfo-Cy5) (human) (UniProt P68400); experiment: MST; CK2α-DBCO-Sulfo-Cy5 constant (65 nM), αS1-casein titrated from 0.76 nM to 12.50 µM; kinase buffer (50 mM Tris/HCl pH 8.5, 25 mM NaCl, 20 mM MgCl2) with 0.1% Tween-20; samples incubated at 37 °C for 90 min; recorded at 30 °C; Monolith NT.115; three independent experiments

Work on “purified regulatory CK2β-subunit (from UniProt P67870 1-215) (natural protein)” yielded a phosphorylation activity on the substrate peptide … by capillary electrophoresis: CK2α-DBCO545 with purified CK2β added in a 1:1 ratio against CK2α-DBCO545 alone [1] of 8 fold.

B1: CK2α-DBCO545 (human protein kinase CK2α subunit with pAzF at position 239, coupled to DBCO545) (enzyme)
chain: MSGPVPSRARVYTDVNTHRPREYWDYESHVVEWGNQDDYQLVRKLGRGKYSEVFEAINITNNEKVVVKILKPVKKKKIKREIKILENLRGGPNIITLADIVKDPVSRTPALVFEHVNNTDFKQLYQTLTDYDIRFYMYEILKALDYCHSMGIMHRDVKPHNVMIDHEHRKLRLIDWGLAEFYHPGQEYNVRVASRYFKGPELLVDYQMYDYSLDMWSLGCMLASMIFRKEPFFHGHDN
modifications: para azidophenylalanine (pAzF) at 239, coupled to dibenzylcyclooctyne-fluor 545 (DBCO545) by SPAAC click reaction
B1 showed a mean fluorescence intensity (mF) [2] of 3800.

B2: human αS1-casein (natural protein)
chain: RPKLPLRYPERLQNPSESSEPIPLESREEYMNGMNRQRNILREKQTDEIKDTRNESTQNCVVAEPEKMESSISSSSEEMSLSKCAEQFCRLNEYNQLQLQAAHAQEQIRRMNENSHVQVPFQQLNQLAAYPYAVWYYPQIMQYVPFPPFSDISNPTAHENYEKNNVMLQW
With B2 the Kd [3] was 631 nM.
